Assay results from article PMC4333373.

Legend:
[1] = molecular target: T1, ParB (Spo0J) (Bacillus subtilis 168) (UniProt P26497); experiment: EMSA; conditions: 50 mM Hepes-KOH pH 7.5, 100 mM KCl, 2.5 mM MgCl2, 0.1 mg/ml BSA, 1 mM DTT, 20 nM DNA, EMSA also 2.5% Ficoll, room temperature 30 min then ice 5 min, gel at 4 C
T1 sequence: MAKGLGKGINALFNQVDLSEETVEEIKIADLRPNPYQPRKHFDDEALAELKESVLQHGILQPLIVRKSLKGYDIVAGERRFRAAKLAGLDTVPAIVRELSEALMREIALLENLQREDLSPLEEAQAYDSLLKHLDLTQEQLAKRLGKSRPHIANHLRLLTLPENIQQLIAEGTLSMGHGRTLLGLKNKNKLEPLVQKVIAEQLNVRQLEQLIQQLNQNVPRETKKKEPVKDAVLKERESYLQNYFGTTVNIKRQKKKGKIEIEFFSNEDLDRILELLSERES

[2] = molecular target: T1, ParB (Spo0J) (Bacillus subtilis 168); experiment: fluorescence intensity (Cy3); conditions: 50 mM Hepes-KOH pH 7.5, 100 mM KCl, 2.5 mM MgCl2, 0.1 mg/ml BSA, 1 mM DTT, 20 nM DNA, EMSA also 2.5% Ficoll, room temperature 30 min then ice 5 min, gel at 4 C

147-bp parS
Kd ([1]; specific complex, TBM gel, 2.5 mM Mg2+): 100 nM

Cy3 147-bp non-specific (scrambled parS)
Kd ([2]; apparent Kd of ParB2, Hill h = 3.4 ± 0.4, 2.5 mM Mg2+): 275 nM

Cy3 147-bp parS
Kd [2]: 240 nM

GGTACAAAAAGTGATTGCGGAGCAGCTCAATGTTCGCCAACTTGAGCAGCTGATTCAGCAGTTGAATCAGAATGTTCCACGTGAAACAAAGAAAAAAGAACCTGTGAAAGATGCGGTTCTAAAAGAACGGGAATCCTATCTCCAAAA (double strand) [147-bp parS]
Kd [1]: 100 nM | binding [1]: binds

TTTTGGAGATAGGATTCCCGTTCTTTTAGAACCGCATCTTTCACAGGTTCTTTTTTCTTTGTCTCCCTGGGCACGTTCTGATTCAACTGCTGAATCAGCTGCTCAAGTTGGCGAACATTGAGCTGCTCCGCAATCACTTTTTGTACC (double strand) [147-bp non-specific (scrambled parS)]
binding [1]: binds

TTTTGGAGATAGGATTCCCGTTCTTTTAGAACCGCATCTTTCACAGGTTCTTTTTTCTTTGTCTCCCTGGGCACGTTCTGATTCAACTGCTGAATCAGCTGCTCAAGTTGGCGAACATTGAGCTGCTCCGCAATCACTTTTTGTACC (double strand) [Cy3 147-bp non-specific (scrambled parS)]
Kd [2]: 275 nM

TTTTGGAGATAGGATTCCCGTTCTTTTAGAACCGCATCTTTCACAGGTTCTTTTTTCTTTGTTTCACGTGGAACATTCTGATTCAACTGCTGAATCAGCTGCTCAAGTTGGCGAACATTGAGCTGCTCCGCAATCACTTTTTGTACC (double strand) [Cy3 147-bp parS]
Kd [2]: 240 nM
